Measured values from patent publication US20150104459A1.
Residue numbers refer to the chain shown, from its start.

B1: 3139_P23 (antibody, V domains shown)
VH: QVQLQESGPRLVKPSESLSLTCTVSGGSISNSFWGWIRQPPGEGLEWIGYVYNSGNTKYNPSLKSRVTISRDTSKSQLYMKLRSVTAADTAVYYCARHDDASHGYSISWGHGTLVTVSS
VL: DIQMTQSPSSLSASVGDRVTITCRASQTISTYLNWYQQKSGKAPKLLIYAASGLQSGVPSRFSGSGSGTDFTLTISSLQPEDFATYFCQQSYNTPLTFGQGTKVEIK
B2: 3362_B11 (antibody, V domains shown)
VH: QVQLQASGPGLVKPSETLSLTCTVSGDSITSGAYYWTWIRQHPGKGLEWIGYIYYSGNTYYNPSLKSRVTISLDTSKNQFSLKVNSVTAADTAVYYCARAASTSVLGYGMDVWGQGTTVTVSS
VL: B1 VL with T28S, T31R, K39E, S40P, I48V, G53S, F87Y, N93S, K103R, V104L
B3: 3260_D19 (antibody, V domains shown)
VH: DMQLVESGGGLVPPGGSLRLSCAASGFSVSDNYINWVRQAPGKGLDWVSVFYSADRTSYADSVKGRFTVSSHDSKNTVYLQMNSLRAEDTAVYYCARVQKSYYGMDVWGQGTTVTVSS
VL: GIQMTQSPSSLSASVGDRVTITCRASQSISRYLNWYLQKPGKAPKLLISGASSLQSGVPSRFSGTGSGTEFTLTISSLQPEDFATYYCQQTFSIPLFGQGTKVEIK
B4: 3242_P05 (antibody, V domains shown)
VH: B3 VH
VL: B3 VL
B5: 3253_P10 (antibody, V domains shown)
VH: QVQLQESGPGLLKPSDTLALTCTVSGGSITSDYWSWIRQPPGRGLDWIGFFYNGGSTKYNPSLKSRVTISADTSKNQLSLKLTSVTAADTGVYYCARHDAKFSGSYYVASWGQGTRVTVSS
VL: DIQMTQSPSSLSASVGDRVTISCRASQSISTYLNWYQQQPGKAPKVLISGATDLQSGVPSRFSGSGSGTDFTLTISSLQPEDFATYYCQQSYNTPLIFGQGTKLEIK
B6: 3248_P18 (antibody, V domains shown)
VH: QVQLQESGPGLVKPSETLSLTCTVSGGSISAYHWSWIRQPPGKGLEWIGHIFDSGSTYYNPSLKSRVTISLDASKNQLSLRLTSVTASDTAIYYCARPLGSRYYYGMDVWGQGTTVTVSS
VL: DIQMTQSPSSLSASVGDRVTITCRASQSISRYLNWYQQKPGKAPKLLIYGASTLQNGAPSRFSGSGSGTDFTLTISSLQPEDSATYLCQQSYSVPAFGGGTKVEVK
Also: test concentration or dose not given here.

The binders below were run against M2 protein of influenza A/Hong Kong/483/97 (H5N1) (influenza A virus A/Hong Kong/483/97 (H5N1)).
For B1, the FACS M2-HK MFI was 110 MFI.
In the case of B2, the FACS M2-HK MFI is reported as 218 MFI.
With B3 the FACS M2-HK MFI was 846 MFI.
B4 was tested, and the FACS M2-HK MFI was 596 MFI.
Binder B5 has an FACS M2-HK MFI of 43 MFI.
In the case of B6, the FACS M2-HK MFI is reported as 967 MFI.
